Legend:
[1] = molecular target: Sbi-E (amino acids 28–266) (Staphylococcus aureus (entry printed for strain Newman)) (UniProt A6QJQ7)
[2] = molecular target: Sbi-III-IV (amino acids 150–266) (Staphylococcus aureus (entry printed for strain Newman)) (UniProt A6QJQ7)

Q: With “complement Factor H (from UniProt P08603 19-1231) (natural protein)” as the substance, how does the inhibition of alternative pathway-mediated lyses of rabbit erythrocytes by human serum, increasing amounts of Sbi-E [1] read?
A: The inhibition of alternative pathway-mediated lyses of rabbit erythrocytes by human serum, increasing amounts of Sbi-E was 600 ng.

Q: And the inhibition of alternative pathway-mediated lyses of rabbit erythrocytes by human serum, increasing amounts of Sbi-III/IV [2]?
A: The inhibition of alternative pathway-mediated lyses of rabbit erythrocytes by human serum, increasing amounts of Sbi-III/IV was 600 ng.
